Test results reported in patent publication US20240043563A1.
Changes are numbered by the printed parent chain.

B1: murine anti-human MASP-2 monoclonal antibody 100 (antibody, V domains shown)
VH: DVQLVESGGGLVQPGGSRKLSCAASGFTFSNFGIHWVRQAPEKGLEWVAYISSGGSAVFYADTVKGRFTISRDNSKNTLFLQMTSLRSEDTAIYYCAKSDRYFDYWGQGTTLTVSS
VL: DIVLTQSPASLAVSLGQRATISCRASQSVSSSSYRYIHWYQQKPGQPPRLLIKYASNLESGVPARFSGSGSGTDFTLNIHPVEEEDTATYYCQHSWETPWTFGGGTKLEIK
B2: murine anti-human MASP-2 monoclonal antibody 120 (antibody, V domains shown)
VH: DVQLQESGPGLVKPSQSLSLTCTVTGYSITSDYAWSWIRQFLRNKLEWMGYISYSGRTSYNPSLKSRISITRDTSKNQFFLQLNSVTTEDTATYFCARLITGGDYWGQGTSVTVSS
VL: DIVMTQSQKFMSTSVGDRVSVTCKASQNVGINVVWYQQKPGQSPKALIYSASYRFSGVPDRFTGSGSGTDFTLTISNVQSEDLAEYLCLQYDINPLTFGAGTKLELK
B3: murine anti-human MASP-2 monoclonal antibody 136 (antibody, V domains shown)
VH: QVQLQQSGAELAKPGASVKMSCKASGNTFTNYWMHWIKQRPGQGLEWVGYINPNTGYTDFNQKFKDKATLTADKSSTTAYMQLISLTSEDSTVYYCTLQLGRNFDYWGQGTTLTVSS
VL: DIVLTQSPASLGVSLGQRATISCRASQSVSSSRSTYIHWYQQKPGQPPKLLIKYSSNLESGVPARFSGGGSGTDFTLNIHPVEAEDTATYYCHQSWEIPYTFGGGTKLEIR
B4: murine anti-human MASP-2 monoclonal antibody 60 (antibody, V domains shown)
VH: QVQLQQSGAELMKPGASVKISCKATGYPFSTYWIEWVKQRPGHGLEWIGEILPGSDNTNYNEKFKGKATFTADTSSNTAYMQLSSLTSEDSAVYYCARRTTATRAWFVYWGQGTLVTVSA
VL: DIVMSQSPSSLAVSVGEKVTMSCKSSQSLLYSSNQKNYLAWYQQKPGQSPKLLIYWASTRESGVPDRFTGSGSGTDFTLTISSVRAEDLAVYYCQHYYTYPWTFGGGTNLEIK
B5: murine anti-human MASP-2 monoclonal antibody 115 (antibody, V domains shown)
VH: DVQLVESGGGLVQPGGSRKLSCAASGFTFSSFGMHWVRQAPEKGLEWVAYISSGSSSFFYADTVKGRFTISRDNPKNTLFLQMTSLRSEDTAMYYCARGDRNFDVWGAGTTVTVSS
VL: B1 VL with S30T, S33R, R35S, I37M, Y40F, R49N, Y54H, E85D, T98V
B6: murine anti-human MASP-2 monoclonal antibody 126 (antibody, V domains shown)
VH: B5 VH with A23V, F58S, A61V, D104E
VL: B1 VL with S33R, R35S, I37M, Y40F, R49N, Y54H, H94Q, T98V
B7: murine anti-human MASP-2 monoclonal antibody 124 (antibody, V domains shown)
VH: DVQLQESGPGLVKPSQSLSLTCTVTGYSITSDYAWNWIRQFPGNKLEWMGYISYSGRTSYNPSLKSRLSITRDTSKNQFFLQLTSVTTEDTATYYCARHYGDFWGQGTTLTVSS
VL: DIVMTQSQKFMSTSVGDRVSVTCKASQNVDTNVAWFQQKPGQSPKPLIYSASYRYSGVPDRFTGSGSGTDFTLTISNVQSEDLANYFCQQYNSYPSTFGSGTKLEIK
B8: humanized anti-human MASP-2 monoclonal antibody 126-Hu (antibody, human IgG4 S228P, kappa, V domains shown)
VH: QVQLVESGGGVVQPGRSLRLSCAASGFTFSSFGMHWVRQAPGKGLEWVAYISSGSSSSFYVDTVKGRFTISRDNSKNTLYLQMNSLRAEDTAVYYCARGDRNFEVWGQGTTVTVSS
VL: DIQMTQSPSSLSASVGDRVTITCRASQSVSSSRYSYMHWFQQKPGKAPKLLIYHASNLESGVPSRFSGSGSGTDFTLTISSLQPEDFATYYCQQSWEVPWTFGQGTKLEIKR
B9: humanized anti-human MASP-2 monoclonal antibody 136-Hu (antibody, human IgG4 S228P, kappa, V domains shown)
VH: QVQLVQSGAEVKKPGASVKVSCKASGNTFTNYWMHWIRQAPGQGLEWMGYINPNTGYTDFNQKFKDRVTLTADKSTSTAYMELSSLRSEDTAVYYCTLQLGRNFDYWGQGTTVTVSS
VL: B8 VL with Y34S, S35T, M37I, F40Y, H54Y, A55S, Q93H, V98I, W100Y
B10: humanized anti-human MASP-2 monoclonal antibody 100-Hu (antibody, human IgG4 S228P, kappa, V domains shown)
VH: B1 VH with D1Q, L11V, R18L, K19R, E42G, F80Y, T84N, S88A, I93V, L112V
VL: EIVLTQSPATLSLSPGERATLSCRASQSVSSSSYRYIHWYQQKPGQAPRLLIYYASNLESGIPARFSGSGSGTDFTLTISSLEPEDFAVYYCQHSWETPWTFGQGTKLEIKR
B11: humanized anti-human MASP-2 monoclonal antibody 124-Hu (antibody, human IgG4 S228P, kappa, V domains shown)
VH: QVQLQESGPGLVKPSQTLSLTCTVSGYSITSDYAWNWIRQPPGKGLEWMGYISYSGRTSYNPSLKSRLTISRDTSKNQFSLKLSSVTAADTAVYYCARHYGDFWGQGTTVTVSS
VL: DIQMTQSPSSLSASVGDRVTITCKASQNVDTNVAWYQQKPGKAPKLLIYSASYRYSGVPSRFSGSGSGTDFTLTISSLQPEDFATYYCQQYNSYPSTFGQGTKLEIKR

Molecular target: Fc-hMASP-2A-CCS (human) [IgG part: P01857]
Sequence (P01857 other isoform, or with tags, fused parts or gaps limits assumed, form in doubt): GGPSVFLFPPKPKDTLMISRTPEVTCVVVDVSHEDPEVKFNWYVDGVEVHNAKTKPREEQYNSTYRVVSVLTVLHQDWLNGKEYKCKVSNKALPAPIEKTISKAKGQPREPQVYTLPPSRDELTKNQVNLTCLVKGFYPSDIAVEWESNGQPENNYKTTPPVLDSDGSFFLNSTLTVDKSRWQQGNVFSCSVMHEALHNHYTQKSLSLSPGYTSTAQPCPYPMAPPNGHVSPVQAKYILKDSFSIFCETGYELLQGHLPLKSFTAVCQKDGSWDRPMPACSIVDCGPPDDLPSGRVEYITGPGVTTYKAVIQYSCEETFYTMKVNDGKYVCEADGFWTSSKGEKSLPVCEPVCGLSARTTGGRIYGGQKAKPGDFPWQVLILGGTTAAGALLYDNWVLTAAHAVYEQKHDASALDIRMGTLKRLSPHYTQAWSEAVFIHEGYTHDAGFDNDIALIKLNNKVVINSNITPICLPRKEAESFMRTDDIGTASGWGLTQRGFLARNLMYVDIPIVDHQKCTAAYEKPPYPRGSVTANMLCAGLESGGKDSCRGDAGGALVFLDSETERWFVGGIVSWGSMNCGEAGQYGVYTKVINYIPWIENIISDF
Assay: ELISA, plate coated with 1 ug/mL Fc-hMASP-2A-CCS

Row | Binder | EC50 [nM]
1 | B1 | 0.173
2 | B2 | 0.16
3 | B3 | 0.143
4 | B4 | 0.149
5 | B5 | 0.151
6 | B6 | 0.161
7 | B7 | 0.182

Molecular target: MASP-2-CCS-Flag (human) (UniProt O00187)
Sequence (O00187 other isoform, or with tags, fused parts or gaps limits assumed, form in doubt): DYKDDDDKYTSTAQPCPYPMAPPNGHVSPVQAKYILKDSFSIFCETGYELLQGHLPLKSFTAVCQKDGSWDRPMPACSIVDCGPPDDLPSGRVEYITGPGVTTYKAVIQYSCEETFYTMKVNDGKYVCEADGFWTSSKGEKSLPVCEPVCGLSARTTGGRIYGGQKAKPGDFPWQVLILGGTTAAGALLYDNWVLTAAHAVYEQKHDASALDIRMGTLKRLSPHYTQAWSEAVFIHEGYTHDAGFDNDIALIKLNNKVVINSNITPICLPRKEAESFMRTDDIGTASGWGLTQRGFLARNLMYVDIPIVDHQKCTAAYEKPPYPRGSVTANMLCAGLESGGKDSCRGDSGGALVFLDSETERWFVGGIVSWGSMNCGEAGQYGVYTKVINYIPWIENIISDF
Assay: SPR, Biacore T200, antibody captured on Protein A chip, MASP-2-CCS-Flag as analyte

Row | Binder | Kd [nM] | fold affinity against the reference antibody Narsoplimab [times] | koff [s⁻¹] | kon [M⁻¹ s⁻¹]
8 | B8 | 0.148 | 60 | 6.33e-05 | 428000
9 | B9 | 0.998 |  | 0.000589 | 590000
10 | B10 | 0.701 |  | 0.000298 | 428000
11 | B11 | 0.35 | 25 | 0.000582 | 1.66e+06

Molecular target: Fc-hMASP-2A-CCS (human) [IgG part: P01857]
Assay: ELISA according to Example 5, plate coated with Fc-hMASP-2A-CCS

Row | Binder | EC50 [nM]
12 | B8 | 0.246
13 | B9 | 0.26
14 | B10 | 0.297
15 | B11 | 0.25
